Results reported in patent US20220227830A1, “QD DOSING OF GIP RECEPTOR AGONIST PEPTIDE COMPOUNDS AND USES THEREOF” (Takeda Pharmaceutical Company Limited, priority 2020, published 2022).
Starred links: 1 amine or outer side, 2 acyl side, 3 side chain; linkers in the order of their positions; H or OH if unused. Non-standard residues stand in square brackets, D forms with d. Groups on a side chain read outwards from the residue. No end group written: not given here. *: point of attachment. C15 diacid = O=C(O)CCCCCCCCCCCCCC(=O)*; γGlu = O=C(O)[C@H](CCC(=O)[*:2])N[*:1]; NMeY = CN[C@@H](Cc1ccc(O)cc1)C(=O)O; AEEA = NCCOCCOCC(=O)O; Aib = CC(C)(N)C(=O)O

What was measured:
[1] = target: T1, full-length human GIPR with an N-terminal FLAG tag (human, UniProt P48546 22-466); test: cell-based or functional assay
T1 sequence (looked up): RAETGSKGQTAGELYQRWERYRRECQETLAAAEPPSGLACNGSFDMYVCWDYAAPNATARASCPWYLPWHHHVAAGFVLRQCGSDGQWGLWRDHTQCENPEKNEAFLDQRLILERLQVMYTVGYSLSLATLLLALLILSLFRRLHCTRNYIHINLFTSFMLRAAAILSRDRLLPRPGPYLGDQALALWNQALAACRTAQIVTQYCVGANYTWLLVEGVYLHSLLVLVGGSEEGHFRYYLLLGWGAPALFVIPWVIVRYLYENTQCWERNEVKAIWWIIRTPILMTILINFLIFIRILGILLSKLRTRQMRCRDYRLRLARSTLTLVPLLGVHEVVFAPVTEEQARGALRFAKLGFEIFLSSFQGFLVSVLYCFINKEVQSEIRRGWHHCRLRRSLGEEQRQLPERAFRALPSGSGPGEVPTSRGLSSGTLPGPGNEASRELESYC

[2] = target: full-length human GLP-1R with an N-terminal FLAG tag (human, UniProt P43220 24-463); test: cell-based or functional assay

B1: Compound 128 (peptide)
peptide: [NMeY][Aib]EGTFISDYSI[Aib]K([AEEA-AEEA-γGlu-C15 diacid])DR[Aib]AQ[Aib]DFVNWLLAQRPSSGAPPPS-NH2
modifications: N-terminus assumed
SMILES: CC[C@H](C)[C@H](NC(=O)[C@H](Cc1ccccc1)NC(=O)[C@@H](NC(=O)CNC(=O)[C@H](CCC(=O)O)NC(=O)C(C)(C)NC(=O)[C@H](Cc1ccc(O)cc1)NC)[C@@H](C)O)C(=O)N[C@@H](CO)C(=O)N[C@@H](CC(=O)O)C(=O)N[C@@H](Cc1ccc(O)cc1)C(=O)N[C@@H](CO)C(=O)N[C@H](C(=O)NC(C)(C)C(=O)N[C@@H](CCCCNC(=O)COCCOCCNC(=O)COCCOCCNC(=O)CC[C@H](NC(=O)CCCCCCCCCCCCCC(=O)O)C(=O)O)C(=O)N[C@@H](CC(=O)O)C(=O)N[C@@H](CCCNC(=N)N)C(=O)NC(C)(C)C(=O)N[C@@H](C)C(=O)N[C@@H](CCC(N)=O)C(=O)NC(C)(C)C(=O)N[C@@H](CC(=O)O)C(=O)N[C@@H](Cc1ccccc1)C(=O)N[C@H](C(=O)N[C@@H](CC(N)=O)C(=O)N[C@@H](Cc1c[nH]c2ccccc12)C(=O)N[C@@H](CC(C)C)C(=O)N[C@@H](CC(C)C)C(=O)N[C@@H](C)C(=O)N[C@@H](CCC(N)=O)C(=O)N[C@@H](CCCNC(=N)N)C(=O)N1CCC[C@H]1C(=O)N[C@@H](CO)C(=O)N[C@@H](CO)C(=O)NCC(=O)N[C@@H](C)C(=O)N1CCC[C@H]1C(=O)N1CCC[C@H]1C(=O)N1CCC[C@H]1C(=O)N[C@@H](CO)C(N)=O)C(C)C)[C@@H](C)CC
Human GIPR cAMP, HEK293T EC50 [1]: 0.0004 nM | Human GLP1R cAMP HEK293T EC50 [2]: 457 nM

B2: Compound 127 (peptide)
peptide: [NMeY][Aib]EGTFISDYSIALDRK([AEEA-AEEA-γGlu-C15 diacid])AQ[Aib]NFVNWLLAQSPSSGAPPPS-NH2
modifications: N-terminus assumed
SMILES: CC[C@H](C)[C@H](NC(=O)[C@H](CO)NC(=O)[C@H](Cc1ccc(O)cc1)NC(=O)[C@H](CC(=O)O)NC(=O)[C@H](CO)NC(=O)[C@@H](NC(=O)[C@H](Cc1ccccc1)NC(=O)[C@@H](NC(=O)CNC(=O)[C@H](CCC(=O)O)NC(=O)C(C)(C)NC(=O)[C@H](Cc1ccc(O)cc1)NC)[C@@H](C)O)[C@@H](C)CC)C(=O)N[C@@H](C)C(=O)N[C@@H](CC(C)C)C(=O)N[C@@H](CC(=O)O)C(=O)N[C@@H](CCCNC(=N)N)C(=O)N[C@@H](CCCCNC(=O)COCCOCCNC(=O)COCCOCCNC(=O)CC[C@H](NC(=O)CCCCCCCCCCCCCC(=O)O)C(=O)O)C(=O)N[C@@H](C)C(=O)N[C@@H](CCC(N)=O)C(=O)NC(C)(C)C(=O)N[C@@H](CC(N)=O)C(=O)N[C@@H](Cc1ccccc1)C(=O)N[C@H](C(=O)N[C@@H](CC(N)=O)C(=O)N[C@@H](Cc1c[nH]c2ccccc12)C(=O)N[C@@H](CC(C)C)C(=O)N[C@@H](CC(C)C)C(=O)N[C@@H](C)C(=O)N[C@@H](CCC(N)=O)C(=O)N[C@@H](CO)C(=O)N1CCC[C@H]1C(=O)N[C@@H](CO)C(=O)N[C@@H](CO)C(=O)NCC(=O)N[C@@H](C)C(=O)N1CCC[C@H]1C(=O)N1CCC[C@H]1C(=O)N1CCC[C@H]1C(=O)N[C@@H](CO)C(N)=O)C(C)C
Human GIPR cAMP, HEK293T EC50 [1]: 0.0005 nM | Human GLP1R cAMP HEK293T EC50 [2]: 66.1 nM
